Assay: yeast display, Sf9 membrane polyspecificity reagent, FACS + sequencing; frameworks hold sequencing errors
In short: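 Genes from sorted yeast were amplified by colony PCR, read by MiSeq 2 × 250 sequencing and filtered on CDR length. These cells carried a synthetic nanobody library in Saccharomyces cerevisiae BJ5465 and were sorted by FACS into low and high (top ~1%) gates on anti-HA and streptavidin fluorescence. Polyreactivity is labelled according to the gate of origin.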

Row | Sequence | polyreactivity (PSR sort gate)
1 | QVQLVESGGGLVQAGGSLRLSCAASGRIFGAYAMGWYRQAPGKERELVAAITSRGGNTYYADSVKGRFTISRDNAKNTVFLQMNSLKPEDTAVYYCAARHDTRRQYYVGQSAFDYWGQGTQVTVSS | low polyreactivity
2 | QVQLVESGGGLVQAGGSLRLSCAASGRIFGAYAMGWYRQARGKERELVAAIDIRGGNTYYADSVKGRFTISRDNAKNTVYLQMNSLKPEDTAVYYCPADTWYDAYNYWGQGTQVTVSS | low polyreactivity
3 | QVQLVESGGGLVQAGGSLRLSCAASGRIFGDNAMGWYRQAPGKERELVAAITNRGGTTYYADSVKGRFTISRDNAKNTVYLQMNSLRPEDTAVYYCNKTPDRHRRYFGYGYWGQGTQVTVSS | low polyreactivity
4 | QVQLVESGGGLVQAGGSLRLSCAASGRIFGDNAMGWYRQAPGKERELVAGIRWRADRTYYADSVKGRFTISRDNAKNTVYLQMNSLKPEDTAVYYCNADVVRYRHWHRGDYWGQGTQVTVSS | low polyreactivity
5 | QVQLVESGGGLVQAGGSLRLSCAASGRIFGDYAMGWYRQAPGKERELVARITWSGTGTYYADSVKGRFTISRDNAKNTVYLQMNSLKPEDTAVYYCNADWQVQWYYYWGHGTQVTVSS | low polyreactivity
6 | QVQLVESGGGLVQAGGSLRLSCAASGRIFGENAMGGYRQAPGKEREFVAVISISDASTYYADSVKGRFTISRDNAKNTVYLQMNSLKPEDTAVYYCAADLTDFLYVASDYWGQGTQVTVSS | low polyreactivity
7 | QVQLVESGGGLVQAGGSLRLSCAASGRIFGENAMGWYRQAPGKERELVAAINSGGSTSYADSVKGRFTISRDNAKNTVYLQMNSLKPEDTAVYYCAADEIQGFYTHSFEYWGQGTQVTVSS | low polyreactivity
8 | QVQLVESGGGLVQAGGSLRLSCAASGRIFGFNALGWYRQAPGKEREFVAAMSGNGGSTYYADSVKGRFTISRDTAKNTVYLPMLSLNPEDTADYYSAASVHATYFSGARHWVKLYDWRQGTQVTVSS | high polyreactivity
9 | QVQLVESGGGLVQAGGSLRLSCAASGRIFGFNAMGWYRQAPGKERELVAGITDSSGRTNYADSVKGRFTISRDNAKNTVYLQMNSLKPEDTAVYYCAKASAYGLANDYDYWGQGTQVTVSS | low polyreactivity
10 | QVQLVESGGGLVQAGGSLRLSCAASGRIFGFNTMGWYRQAPGKERELVAAISRNGGSTYYADSVKGRFTISRDNAKNTVYLEMNSLKPEDTAVYYCAKRWYPYSYDYWGQGTQVTVSS | high polyreactivity
11 | QVQLVESGGGLVQAGGSLRLSCAASGRIFGFYAMGWYRQAPGKERELVAAITNGGSTYYADSVKGRFTISRDNAKNTVDLQMNSLKPEDTAVYYCNKGRQAHLHITMDYWGQGTQVTLSS | low polyreactivity
12 | QVQLVESGGGLVQAGGSLRLSCAASGRIFGFYTMGWYRQAPGKERELVAGISRGGSTYYADSVKGRFTISRDNAKNTGYVQMNSLNPEDTAVYDCAADLGWGYEYWGQGTQVTVSS | low polyreactivity
13 | QVQLVESGGGLVQAGGSLRLSCAASGRIFGGNAMGWYRQAPGKERELVAAISQRGGSTSYADSVKGRFTISRDNAKNTVYLQMNSLKPEDTAVYYCAATWGYLRGSTKFYYWGQGTQVTVSS | high polyreactivity
14 | QVQLVESGGGLVQAGGSLRLSCAASGRIFGGNAMGWYRQAPGKERELVAAITWGGSTNYADSVKGRFTISRDNAKNTVYLQMNRLKPEDTAVYYCNADPVRDTYWHPETQQWYGYWGQGTQVTVSS | low polyreactivity
15 | QVQLVESGGGLVQAGGSLRLSCAASGRIFGGYAMGWYRQAPGKERELVAVITDGGSTNYADSVKGRFTISRDNAKNTVYLQMNSLKPEDTAVYYCAADSDGDEPPYDYWGQGTQVTVSS | low polyreactivity
16 | QVQLVESGGGLVQAGGSLRLSCAASGRIFGGYARGWYRQAPGKERELVAVINGGTSTKYADSVKGRFTISRDNAKNTVYLQMNSLKPEDTAVYYCAKTRHDSLQNRNRYDYWGQGTQVTVSS | low polyreactivity
17 | QVQLVESGGGLVQAGGSLRLSCAASGRIFGGYTMGWSRPAPGKERELVAAITGSGGRTYYADSVKGRFTISRDNAKNTVYLQMNSLQPEDTAVYYCNTVYRYLYSWGQGTQVTVSS | high polyreactivity
18 | QVQLVESGGGLVQAGGSLRLSCAASGRIFGGYTMGWYRQAPGKERELVASINSGGSTAYADSVKGRFTISRDNAKNTVYLQMNSLKPEDTAVYYCAKRYAQTYSVSRYYYWGQGTQVTVSS | high polyreactivity
19 | QVQLVESGGGLVQAGGSLRLSCAASGRIFGHNAMGWYRQAPGKERELVARISSTGSTKYADSVKGRFTISRDNAKNTVYLQMNSLKPEDTAVYYCAAYIIRWKGSSYYWGQGTQVTVSS | high polyreactivity
20 | QVQLVESGGGLVQAGGSLRLSCAASGRIFGHNAMGWYRQAPGKERELVATISSGVRTNYADSVKGRFTISRDNAKNTVYLQMNSLKPEDTAVYYCATKTYQFGYSSYYYWGQGTQVTVSS | high polyreactivity
21 | QVQLVESGGGLVQAGGSLRLSCAASGRIFGHNSMGWSRQPPWKEMELVATISSGVRTNYADSVKGRFTISRDNAKNTVYLQMNSLKPEDTAVYYCATKTYQFGYSSYYYWGQGTQVTVSS | high polyreactivity
22 | QVQLVESGGGLVQAGGSLRLSCAASGRIFGHYAIGWYRKAPGKERELVAAISTSGGSTYYADSVKGRFTISRDNAKNTVYLQMNSLKPEDTAVYYCAASVVYYPYDYWGQGTQVTVSS | high polyreactivity

Row | Sequence | polyreactivity (PSR sort gate)
23 | QVQLVESGGGLVQAGGSLRLSCAASGRIFGINALGWYRQAPGKERELVAAISSADSTYADSVKGRFTISRDNAKNTVFLQMYSLNPEDTAVYNCRNDYWGQGTQVTVSS | low polyreactivity
24 | QVQLVESGGGLVQAGGSLRLSCAASGRIFGINAMGWYRQAPGKERELVAAINRSGDTTNYADSVKGRFTISRDNAKNTVYLQMNSLKPEDTAVYYCAADGYRQVYYRYYYWGQGTQVTVSS | high polyreactivity
25 | QVQLVESGGGLVQAGGSLRLSCAASGRIFGINAMGWYRQAPGKERELVAAITWSGDGTYDADSVKGRFTISRDNAKNTVYLQMNSLKPEDTAVYYCAKQLPEISQMDYWGQGTQVTVSS | low polyreactivity
26 | QVQLVESGGGLVQAGGSLRLSCAASGRIFGKYAMGWYRQAPGKERELVAAISRSGASTYYADSVKGRFTISRDNAKNTVYLQMNSLKPEDTAVYYCAAVPPYNYRVRVYYWGQGTQVTVSS | high polyreactivity
27 | QVQLVESGGGLVQAGGSLRLSCAASGRIFGKYAMGWYRQAPGKERELVAAISSSGGSTYYADSVKGRFTISRDNAKNTVYLQMNSLKPEDTAVYYCAADAAVSRVYPYDYWGQGTQVTVSS | high polyreactivity
28 | QVQLVESGGGLVQAGGSLRLSCAASGRIFGKYAMGWYRQAPGKERELVAAISSSGRTNYADSVKGRFTISRDNAKNTVYLQMNSLKPEDTAVYYCAVRVLIHTNTRRLDYWGQGTQVTVSS | high polyreactivity
29 | QVQLVESGGGLVQAGGSLRLSCAASGRIFGKYAMGWYRQAPGKERELVAAISVRGGRTFYADSVKGRFTISRDNAKNTVYLQMNSLKPEVTAVYYCAARGADKGSYADVDYWGQGTQVTVSS | low polyreactivity
30 | QVQLVESGGGLVQAGGSLRLSCAASGRIFGLNAMGWYRQAPGKERELVAAITGSVGSTYYADSVKGRFTISRDNAKNTVYLQMNSLKPEDTAVYYCNAEYDSRRSSYYRHFNYWGQGTQVTVSS | low polyreactivity
31 | QVQLVESGGGLVQAGGSLRLSCAASGRIFGNTMGWYRQAPGKERELVAAITRSGVSTYYADSVKGRFTISRDNAKNTVYLQMNSLKPEDTAVYYCAKVYSRRSVLSRYGSWGQGTQVTVSS | high polyreactivity
32 | QVQLVESGGGLVQAGGSLRLSCAASGRIFGNYAMGWYRQAPGKERELVAAISGGGSTYYADSVKGRFTISRDNAKNTVYLQMKSLKPEDTAVYYCAARFLWSVFGRKGGYWGQGTQVTVSS | low polyreactivity
33 | QVQLVESGGGLVQAGGSLRLSCAASGRIFGNYAMGWYRQAPGKERELVAAISGGGSTYYADSVKGRFTISRDNAKNTVYLQMNSLKPEDTAVYYCAARFLWSVFGHKGGYWGQGTQVTVSS | low polyreactivity
34 | QVQLVESGGGLVQAGGSLRLSCAASGRIFGNYAMGWYRQAPGKERELVAAITSGARTYYADSVKGRFTLSRDNAKNTVYLQMNSLKPEDTAVYYCAAYHKSYSNRYDYWGQGTHVTVSS | high polyreactivity
35 | QVQLVESGGGLVQAGGSLRLSCAASGRIFGPNAMGWYRQAPGKETELVAVISTGGSTNYADSVKGRFTISRDNAKNTVYLQMNSLKPEDTAVYYCAAAYQYERGGLYNRFYYWGQGTQVTVSS | low polyreactivity
36 | QVQLVESGGGLVQAGGSLRLSCAASGRIFGPYAMGWYRQAPGKERELVAAISWSGGSTYYADSVKGRFTISRDNAKNTVFLQMNSLKPEDTAVYYCAARERRVYGDRFYKLDYWGQGTQVTVSS | high polyreactivity
37 | QVQLVESGGGLVQAGGSLRLSCAASGRIFGPYAMGWYRQAPGKERELVASISYSGGSTYYADSVKGRFTISRDNAKNTVYLQMNSLKPEDTAVYYCARRAVYSKRRYDYWGQGTQVTVSS | low polyreactivity
38 | QVQLVESGGGLVQAGGSLRLSCAASGRIFGPYTMGWYRPAPGKERELVARISRRGGSTYYADSVKGRFTISRDNAKNTVYLQMNSLKPEDTAVYYCAAWFTSTRPYDYWGQGTQVTVSS | high polyreactivity
39 | QVQLVESGGGLVQAGGSLRLSCAASGRIFGPYTMGWYRQAPGKERELVAAISWSGGSTYYADSVKGRFTISRDNAKNTVYLQMNSLKPEDTAVFYCNADHPFPQYEGGSWGQGTQVTVSS | low polyreactivity
40 | QVQLVESGGGLVQAGGSLRLSCAASGRIFGQYAMGWYRQAPGKERELVAAISWRGGTTYYADSVKGRITISRDKAKNTVYLQMNSLKPVDTAVYYCNADVWVYPYDYWGQGTQVTVSS | low polyreactivity
41 | QVQLVESGGGLVQAGGSLRLSCAASGRIFGQYAMGWYRQAPGKERELVASISRRGGSKNYADSVKGRFTISRDNAKNTVYLQMNSRKPEDTAVYYCATGRTWILQKLDYWGQGTQVPVSS | high polyreactivity
42 | QVQLVESGGGLVQAGGSLRLSCAASGRIFGRNAMGWYRQAPGKERELVAAISSGSGSTYYADSVKGRFTISRDNAKNTVYLQMISLKPEDTAVYYCAATVSTYLAWRGYWGQGTQVTVSS | high polyreactivity
43 | QVQLVESGGGLVQAGGSLRLSCAASGRIFGRNARGWYRQAPGKERELVAAISSSGGTYYADSVKGRFTISRYNAKNTVYLQMNSLKPEDTAVYYCNARVRTQQRWVDYWGLGTQVTVSS | high polyreactivity

Source: the nanobody polyreactivity screen of Harvey et al. (2022)
